Test [1] deals with T1, full length (FL) human gp130 over-expressed on HEK293/Stat3-luc/gp130-2X Sort cells (human, UniProt P40189 23-918).
T1 construct: whole, on cells
T1 sequence (looked up): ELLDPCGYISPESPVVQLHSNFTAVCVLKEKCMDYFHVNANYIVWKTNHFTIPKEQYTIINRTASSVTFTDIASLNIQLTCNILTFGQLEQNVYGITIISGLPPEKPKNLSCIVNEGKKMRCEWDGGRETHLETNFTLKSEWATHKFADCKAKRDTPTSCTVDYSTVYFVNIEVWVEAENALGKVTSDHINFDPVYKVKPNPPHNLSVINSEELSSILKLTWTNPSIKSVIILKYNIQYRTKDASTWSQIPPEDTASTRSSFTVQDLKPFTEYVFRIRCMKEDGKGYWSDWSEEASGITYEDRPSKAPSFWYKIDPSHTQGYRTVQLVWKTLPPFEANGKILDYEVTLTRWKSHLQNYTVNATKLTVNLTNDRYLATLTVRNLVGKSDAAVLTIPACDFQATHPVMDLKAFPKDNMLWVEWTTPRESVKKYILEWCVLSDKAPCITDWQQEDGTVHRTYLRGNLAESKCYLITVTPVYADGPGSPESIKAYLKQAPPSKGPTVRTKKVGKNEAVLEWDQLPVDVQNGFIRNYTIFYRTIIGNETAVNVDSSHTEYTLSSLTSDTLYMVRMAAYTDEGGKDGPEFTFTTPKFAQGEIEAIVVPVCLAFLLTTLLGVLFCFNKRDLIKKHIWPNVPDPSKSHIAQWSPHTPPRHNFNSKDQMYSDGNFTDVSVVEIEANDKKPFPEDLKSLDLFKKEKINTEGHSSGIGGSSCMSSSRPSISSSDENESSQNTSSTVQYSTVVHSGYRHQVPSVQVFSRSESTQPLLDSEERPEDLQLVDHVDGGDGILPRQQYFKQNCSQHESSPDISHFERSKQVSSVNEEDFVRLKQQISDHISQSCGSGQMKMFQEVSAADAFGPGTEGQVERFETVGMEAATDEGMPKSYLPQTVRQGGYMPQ
Description: FACS, 10 nM mAb, 293/Stat3-luc/GP130 2X sort cells. The text has this: (§1) In order to assess cell binding by anti-GP130 antibodies of the invention two cell lines were generated. One cell line generated was HEK293 cells stably over-expressing full length (FL) human gp130 (amino acids 1-918 of accession # P40189 with leucine at position 2 changed to valine, a natural variant) along with a luciferase reporter (Stat3-luciferase, Stat3-luc, SA Bioscience, #CLS-6028L). The cells were sorted twice using flow cytometry for high expression of gp130. It is known hereafter as HEK293/Stat3-luc/gp130-2X Sort. IMR-32 cells (human Neuroblastoma, ATCC), were also evaluated for cell binding as these cells express gp130 endogenously and were used for bioassays. The cells used for binding were generated to stably express a luciferase reporter (Stat3-luciferase, Stat3-luc, SA Bioscience, #CLS-6028L), and are referred to hereafter as IMR-32/STAT3-Luc cells.
(§2) For the FACS analysis, 10 nM of the antibodies were used to stain 0.5×10^6 cells/well of each cell type at 4° C. in PBS (without calcium and magnesium) containing 2% FBS for 30 minutes. IMR-32/STAT3-luc cells were incubated with 1 mg/mL mouse IgG for 30 minutes at 4° C. to block Fc receptors prior to adding the antibodies. To test whether the anti-gp130 antibody binding is specific for gp130 on the IMR-32 cells, antibodies were added to IMR-32/Stat3-luc cells with or without being pre-bound to 1000 nM of recombinant protein of the ecto-domain of human gp130 fused to myc-myc-his tag (hgp130.mmh) for 30 minutes at 25° C. […] Cells were fixed using BD CytoFix™ (Becton Dickinson, #554655) and analyzed on an IQue® (Intellicyt®) Flow Cytometer. Unstained and secondary antibody alone controls were also tested for all cell lines. The results were analyzed using ForeCyt® (IntelliCyt®) software to determine the geometric means of fluorescence for viable cells.

The target in test [2] is T2, human gp130 expressed endogenously on IMR-32/Stat3-luc cells (human, UniProt P40189 23-918).
T2 construct: whole, on cells
T2 sequence (looked up): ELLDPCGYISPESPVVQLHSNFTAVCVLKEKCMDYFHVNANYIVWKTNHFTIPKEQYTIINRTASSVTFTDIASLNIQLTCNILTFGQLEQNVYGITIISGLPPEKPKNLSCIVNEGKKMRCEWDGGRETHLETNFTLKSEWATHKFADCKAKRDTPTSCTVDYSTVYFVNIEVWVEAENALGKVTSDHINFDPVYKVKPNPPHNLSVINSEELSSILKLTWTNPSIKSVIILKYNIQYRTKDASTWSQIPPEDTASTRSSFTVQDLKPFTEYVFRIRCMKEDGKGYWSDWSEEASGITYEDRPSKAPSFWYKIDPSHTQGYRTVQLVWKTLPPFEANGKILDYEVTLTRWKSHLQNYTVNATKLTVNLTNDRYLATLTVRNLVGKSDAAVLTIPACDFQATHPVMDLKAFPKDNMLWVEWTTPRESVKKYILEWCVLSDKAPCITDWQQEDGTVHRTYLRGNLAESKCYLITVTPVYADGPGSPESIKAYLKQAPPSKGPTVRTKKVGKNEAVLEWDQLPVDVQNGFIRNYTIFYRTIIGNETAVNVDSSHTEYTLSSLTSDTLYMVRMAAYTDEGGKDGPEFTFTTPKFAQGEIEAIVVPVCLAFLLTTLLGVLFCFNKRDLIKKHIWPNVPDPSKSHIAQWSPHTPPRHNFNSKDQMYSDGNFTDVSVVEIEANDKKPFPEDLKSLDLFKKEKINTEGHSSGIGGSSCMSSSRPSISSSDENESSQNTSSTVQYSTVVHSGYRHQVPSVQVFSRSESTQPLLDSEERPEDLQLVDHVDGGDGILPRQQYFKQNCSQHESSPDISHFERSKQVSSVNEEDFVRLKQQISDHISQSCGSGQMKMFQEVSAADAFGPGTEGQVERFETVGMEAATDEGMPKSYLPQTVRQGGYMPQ
The test is described as follows: FACS, 10 nM mAb, IMR-32/Stat3-luc cells, no hGP130.mmh.
Description: as §1, §2
On the technique in general: A flow cytometer gives signals particle by particle.

In test [3] the target is T2, human gp130 expressed endogenously on …. The test is described as follows: FACS, 10 nM mAb, IMR-32/Stat3-luc cells, competitor 1 uM hGP130.mmh.
Description: as §1, §2

Test [4] addresses T3, human gp130 extracellular domain with the Fc portion of mouse IgG2a at the C-terminus (human).
T3 construct: Dimeric; also called hGP130-mFc; dimeric GP130 protein
T3 chain: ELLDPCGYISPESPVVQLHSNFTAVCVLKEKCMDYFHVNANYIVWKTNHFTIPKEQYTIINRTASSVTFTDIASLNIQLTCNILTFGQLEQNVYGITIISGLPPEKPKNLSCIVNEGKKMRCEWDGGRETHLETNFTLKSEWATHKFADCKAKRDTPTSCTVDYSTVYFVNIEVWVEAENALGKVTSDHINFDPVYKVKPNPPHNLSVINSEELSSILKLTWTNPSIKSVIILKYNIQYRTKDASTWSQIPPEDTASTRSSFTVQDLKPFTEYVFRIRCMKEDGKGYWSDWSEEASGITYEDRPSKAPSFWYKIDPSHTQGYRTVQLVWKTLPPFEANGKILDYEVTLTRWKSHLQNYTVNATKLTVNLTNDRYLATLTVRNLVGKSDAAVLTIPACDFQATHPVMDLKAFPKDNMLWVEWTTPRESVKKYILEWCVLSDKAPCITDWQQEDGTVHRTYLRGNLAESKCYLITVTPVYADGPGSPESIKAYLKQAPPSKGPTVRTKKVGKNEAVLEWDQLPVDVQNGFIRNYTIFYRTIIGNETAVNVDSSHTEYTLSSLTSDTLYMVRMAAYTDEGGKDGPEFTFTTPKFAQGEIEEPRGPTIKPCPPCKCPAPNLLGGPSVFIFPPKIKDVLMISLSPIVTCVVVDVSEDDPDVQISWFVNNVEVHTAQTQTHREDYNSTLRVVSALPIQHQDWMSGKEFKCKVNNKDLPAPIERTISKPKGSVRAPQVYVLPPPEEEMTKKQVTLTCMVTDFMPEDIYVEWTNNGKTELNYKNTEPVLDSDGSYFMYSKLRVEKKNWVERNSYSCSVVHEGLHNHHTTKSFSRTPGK
Description: blocking ELISA, 2.5 nM hGP130-mFc to plate-bound CNTFR/CNTF complex; * below the lower limit of quantitation of 1.25E-09 M. The procedure: The experiment was carried out using the following procedure. Human CNTFRα was coated at a concentration of […] in HBSS on a 96-well microtiter plate overnight at 4° C. […] Human CNTF at a concentration of 1 μg/ml in HBSS was added to the plate bound CNTFRα for 1 hour at room temperature. In separate dilution plates, a constant amount of 2.5 nM of human GP130-mFc protein was titrated with antibodies ranging from 3.4 pM to 200 nM in serial dilution and with no antibody present. These solutions were incubated for 1 hour at room temperature (RT) and subsequently transferred to the microtiter plates with CNTFRα/CNTF complex without washing. The plates were incubated for 2 hours at RT, washed with PBST buffer, and plate-bound hGP130-mFc was detected with an anti-mFc polyclonal antibody conjugated with horseradish peroxidase (HRP) (Jackson ImmunoResearch Inc). Samples were developed with a TMB solution (BD Biosciences, substrate A and B mixed at 1:1 ratio as per manufacturer's instructions) to produce a colorimetric reaction and then neutralized with 1M sulfuric acid before measuring absorbance at 450 nm on a Victor ×5 plate reader.

B1: MAb16666 (antibody, V domains shown)
VH: EVQLVESGGGLVQSGGSLRLSCAASGFTFSRYEMNWVRQAPGKGLEWVAYISNTGTTRDYSDSVKGRFTISRDNAKNSLYLQMSSLRVEDTAVYYCVREKFSGTSDWFDPWGQGTLVTVSS
VL: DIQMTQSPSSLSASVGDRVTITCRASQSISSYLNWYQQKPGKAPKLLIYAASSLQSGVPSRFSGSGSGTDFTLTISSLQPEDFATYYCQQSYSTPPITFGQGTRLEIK
notes: Variable domains only
For B1, the figures for the “MFI - Normalized to Unstained Control” value in test [1], in test [2] and in test [3] were 159, 23 and 8, respectively. Moreover, in test [4], the IC50 was < 1.25 nM.

As a reminder, the IC50 is the midpoint of a concentration-inhibition curve. Low readings indicate inhibition by little substance, high ones a need for much substance.

The values are drawn from patent publication US20190185562A1 (Regeneron, published 2019).
